5 molecules from patent US20200247894A1 (Regeneron, published 2020) can be followed below.

T1: Macaca fascicularis IL2Rγ extracellular domain expressed with a C-terminal myc-myc-hexahistidine tag (Macaca fascicularis)
T1 construct: whole entry is the tagged construct; also called mfIL-2Rg-MMH
T1 chain: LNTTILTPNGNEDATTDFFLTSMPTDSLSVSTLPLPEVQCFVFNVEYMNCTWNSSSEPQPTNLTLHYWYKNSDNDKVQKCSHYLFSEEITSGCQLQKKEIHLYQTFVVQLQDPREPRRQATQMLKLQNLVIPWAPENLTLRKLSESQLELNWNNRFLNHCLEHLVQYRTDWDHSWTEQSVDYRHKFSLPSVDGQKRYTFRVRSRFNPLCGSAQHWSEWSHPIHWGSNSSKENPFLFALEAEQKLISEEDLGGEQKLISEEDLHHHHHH

T2: Human IL2Rγ extracellular domain expressed with a C-terminal mouse IgG2a Fc tag (human)
T2 construct: whole entry is the Fc-fused construct; also called hIL-2Rg-mFc
T2 chain: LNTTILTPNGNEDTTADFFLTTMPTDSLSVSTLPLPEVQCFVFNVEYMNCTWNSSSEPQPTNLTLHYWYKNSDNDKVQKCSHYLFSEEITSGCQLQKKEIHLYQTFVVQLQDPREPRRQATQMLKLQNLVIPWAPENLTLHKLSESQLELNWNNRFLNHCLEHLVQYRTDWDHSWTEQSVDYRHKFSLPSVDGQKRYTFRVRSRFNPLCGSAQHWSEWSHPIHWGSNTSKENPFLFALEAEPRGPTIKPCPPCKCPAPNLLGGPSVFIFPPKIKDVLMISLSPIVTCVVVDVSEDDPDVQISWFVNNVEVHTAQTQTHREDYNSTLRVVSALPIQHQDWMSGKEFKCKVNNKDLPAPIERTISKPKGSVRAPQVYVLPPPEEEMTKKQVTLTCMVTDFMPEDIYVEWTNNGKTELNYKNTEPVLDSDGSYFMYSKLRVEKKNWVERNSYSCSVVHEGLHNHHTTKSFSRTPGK

T3: Rat IL2Rγ extracellular domain expressed with a C-terminal myc-myc-hexahistidine tag (rat)
T3 construct: whole entry is the tagged construct; also called rIL-2Rg-MMH; rat IL-2Rg-MMH
T3 chain: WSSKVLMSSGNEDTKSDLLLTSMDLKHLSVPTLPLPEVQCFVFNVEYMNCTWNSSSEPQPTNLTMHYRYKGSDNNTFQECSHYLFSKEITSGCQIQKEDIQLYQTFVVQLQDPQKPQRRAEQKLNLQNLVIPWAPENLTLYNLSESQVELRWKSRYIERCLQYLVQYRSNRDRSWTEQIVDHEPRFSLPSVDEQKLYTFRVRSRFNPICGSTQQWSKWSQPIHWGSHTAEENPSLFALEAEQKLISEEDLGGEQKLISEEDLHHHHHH

T4: Mouse IL2Rγ extracellular domain expressed with a C-terminal myc-myc-hexahistidine tag (mouse)
T4 construct: whole entry is the tagged construct; also called mIL-2Rg-MMH
T4 chain: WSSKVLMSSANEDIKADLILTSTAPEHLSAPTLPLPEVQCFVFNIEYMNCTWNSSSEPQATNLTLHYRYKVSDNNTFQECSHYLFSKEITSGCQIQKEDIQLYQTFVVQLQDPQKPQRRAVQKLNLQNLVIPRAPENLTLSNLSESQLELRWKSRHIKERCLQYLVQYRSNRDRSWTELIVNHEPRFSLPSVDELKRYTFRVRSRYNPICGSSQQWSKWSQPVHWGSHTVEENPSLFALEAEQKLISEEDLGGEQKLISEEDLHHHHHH

B1: H4H12886P (antibody, human IgG4 S228P, kappa, V domains shown)
VH: EVQLVESGGGLVKPGGSLRLSCAASGFTFSTAWMSWVRQSPGRGLEWVGRMKSKTDGGTTFYAAPVKGRFTISRDDSKNTLYLQMNSLKTEDTAVYYCTTGLVPAFYKYYGVDVWGQGTTVTVSS
VL: DIQMTQSPSSLSASVGDRITITCQASQDITNYLNWYQQKPGKAPNLLIYDASNLVTGVPSRFSGSGSGTDFTFTILSLQPEDIATYYCQQYDSLLTFGPGTKVDIKR
notes: fully human anti-IL2Rgamma mAb, human IgG4 Fc
B2: H4H12884P (antibody, human IgG4 S228P, kappa, V domains shown)
VH: QVQLQESGPGLVKPSQTLSLTCTVSGGSISSGGYYWSWIRQHPGKGLEWIGFIYYSGKTYYNPSLKSRLTISVDTSKSQFSLKLRSVTAADTAVYYCARLGYTNSAGWFDPWGQGTLVTVSS
VL: DIQMTQSPSSLSASVGDRVTITCRASQSISSYLNWYQQKPGKAPNLLIYAASSLQSGVPSRFSGSGSGTDFTLTISSLQPEDLATYYCQQSYTTPFTFGPGTKVDIKR
notes: as for B1
B3: H4H12858P (antibody, human IgG4 S228P, kappa, V domains shown)
VH: EVQLVESGGDLVQPGGSLRLSCTASGFIFRNYAMNWVRQAPGKGLEWLSGILGSNDNTYYVDSVKGRFTISRDNSRNTLYLQMNSLRAEDSAVYYCAKGDAGGFDYWGQGTLVTVSS
VL: DVVMTQSPLSLPVILGQPASISCRSSQSLVSSDGNTYLNWFQQRPGQSPRRLIYKVSNRDSGVPDRFSGSGSGTDFTLKISRVEAEDVGAYYCMQGSYWPPTFGQGTKLEIKR
notes: fully human anti-IL2Rgamma mAb, human IgG4 Fc; also called REGN9433
B4: H4H12871P (antibody, human IgG4 S228P, kappa, V domains shown)
VH: QVQLQESGPGLVKPSQTLSLTCTVSGGSITSGGYYWSWIRQYPGQGLEWIGYIYYSGKTYYNPSFTSRITISVDTSKKQFSLKMSSVTAADTAVYYCARAGFTSSNGWFDPWGQGTLVTVSS
VL: DIQMTQSPSSLSASVGDRVTITCRASQNIRSYLNWYQQKPGKAPKLLIYSASSLQSGVPSRFSGSGSGTDFTLTISSLQPEDFPTYYCQQTYSSPWTFGPGTKVEIKR
notes: fully human anti-IL2Rgamma mAb, human IgG4 Fc; also called REGN9434
B5: H4H12926P2 (antibody, human IgG4 S228P, kappa, V domains shown)
VH: QVQLQQSGPGLVKPSQTLSLTCAISGDSVSSNIAAWNWIRLSPSRGLEWLGRTFFRSTWFYDYSLSVKGRITINPDTSKNQFSLHLNSVTPEDAAVYYCARTGRRWSLDYWGQGTLVTVSS
VL: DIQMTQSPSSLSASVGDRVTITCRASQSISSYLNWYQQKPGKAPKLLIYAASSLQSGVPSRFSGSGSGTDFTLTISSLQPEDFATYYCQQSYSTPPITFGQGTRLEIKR
notes: as for B1

The first experiment addresses T1, Macaca fascicularis IL2Rγ extracellular …. The experiment is described as follows: SPR Biacore 4000, anti-hFc-captured mAb, 37 C. The procedure:
(§1) Equilibrium dissociation constants (KD values) for IL-2Rγ binding to purified anti-IL2Rγ monoclonal antibodies were determined using a Biacore 4000 instrument equipped with a real-time surface plasmon resonance biosensor. All binding studies were performed in 10 mM HEPES, 150 mM NaCl, 3 mM EDTA, and 0.05% v/v Surfactant Tween-20, pH 7.4 (HBS-ET) running buffer at 25° C. and 37° C. The Biacore sensor surface was first derivatized by amine coupling with a monoclonal mouse anti-human Fc antibody (GE, # BR-1008-39) to capture anti-IL2Rγ monoclonal antibodies.
(§2) The dissociation of monoclonal antibody bound IL2Rγ reagents were monitored for 8-10 minutes in HBS-ET running buffer. Kinetic association (kₐ) and dissociation (kd) rate constants were determined by fitting the real-time sensorgrams to a 1:1 binding model using Scrubber 2.0c curve fitting software. Binding dissociation equilibrium constants (KD) and dissociative half-lives (t_{1/2}) were calculated from the kinetic rate constants as: […]
(Surface plasmon resonance follows binding to a sensor surface in real time, without labels.)
The Kd is the constant that tells how readily two partners part at equilibrium. Read a low Kd as tighter binding. The koff is a measure of how fast the partners let go of each other. Usually kon stands for a measure of how fast the partners come together. Consider B1, for which the “100 nM Ag Bound” value is 47 RU, the Kd turned out to be 17.7 nM, the koff came to 0.000846 s⁻¹ and the kon is 47800 M⁻¹ s⁻¹. The molecule further showed a t1/2 of 0.233 h.
Regarding B2, the “100 nM Ag Bound” value was 59 RU, binding was characterised by a dissociation constant (Kd) of 16.1 nM, the koff came to 0.00321 s⁻¹ and the kon came to 200000 M⁻¹ s⁻¹. This molecule also returned a t1/2 of 0.0667 h.
The like results for B3 were, in that order, 47 RU, 4.77 nM, 0.00148 s⁻¹, 309000 M⁻¹ s⁻¹ and 0.133 h.
The like results for B4 were, in that order, 55 RU, 12.7 nM, 0.00261 s⁻¹, 206000 M⁻¹ s⁻¹ and 0.0667 h.

A further experiment concerns the target T2, Human IL2Rγ extracellular domain …. The experiment is described as follows: SPR Biacore 4000, anti-hFc-captured mAb, 37 C. The procedure:
as §1, §2
Consider B1, for which the “50 nM Ag Bound” value is 19 RU, the Kd turned out to be 12.8 nM, the koff was determined as 9.09e-05 s⁻¹ and the kon stood at 7080 M⁻¹ s⁻¹. Also, the t1/2 was 2.12 h.
Turning to B2, the “50 nM Ag Bound” value worked out at 85 RU, binding was characterised by a dissociation constant (Kd) of 0.0554 nM, the koff worked out at 2.69e-05 s⁻¹ and the kon turned out to be 486000 M⁻¹ s⁻¹. For the same molecule, the t1/2 amounted to 7.15 h.
For B3, the “50 nM Ag Bound” value worked out at 37 RU, the Kd was 1.49 nM, the koff is 0.00025 s⁻¹ and the kon was 167000 M⁻¹ s⁻¹. In addition, the t1/2 came out at 0.767 h.
For the molecule B4, the “50 nM Ag Bound” value was 81 RU, the Kd amounted to 0.0505 nM, the koff was 2.39e-05 s⁻¹ and the kon was determined as 473000 M⁻¹ s⁻¹. This molecule yielded a t1/2 of 8.07 h.
Consider B5, for which the “50 nM Ag Bound” value amounted to 11 RU, binding was characterised by a dissociation constant (Kd) of 16 nM, the koff came out at 0.00326 s⁻¹ and the kon came to 204000 M⁻¹ s⁻¹. Further, the t1/2 stood at 0.0667 h.

The next experiment has as its target T3, Rat IL2Rγ extracellular domain …. Nature of the experiment: SPR Biacore 4000, anti-hFc-captured mAb, 37 C. The procedure:
as §1, §2
For the molecule B1, the “100 nM Ag Bound” value was 4 RU.
In the case of B2, the “100 nM Ag Bound” value stood at 4 RU.
For B3, the “100 nM Ag Bound” value turned out to be 0 RU.
In the case of B4, the “100 nM Ag Bound” value came to 1 RU.
As for B5, the “100 nM Ag Bound” value came to 2 RU.

The target of another experiment is T4, Mouse IL2Rγ extracellular domain …. The experiment is described as follows: SPR Biacore 4000, anti-hFc-captured mAb, 37 C. The procedure:
as §1, §2
With B1, the “100 nM Ag Bound” value was -2 RU.
Consider B2, for which the “100 nM Ag Bound” value turned out to be 1 RU.
Consider B3, for which the “100 nM Ag Bound” value was 0 RU.
B4: the “100 nM Ag Bound” value was -1 RU.
Take B5: the “100 nM Ag Bound” value came out at 0 RU.

In another experiment the target is T2, Human IL2Rγ extracellular domain …. The experiment is described as follows: SPR Biacore 4000, anti-hFc-captured mAb, 25 C. The procedure: as §1, §2
For the molecule B1, the “50 nM Ag Bound” value was determined as 23 RU, the Kd is 1.26 nM, the off-rate (koff) is 6.7e-05 s⁻¹ and the kon is 53400 M⁻¹ s⁻¹. The molecule also displayed a t1/2 of 2.87 h.
For the molecule B2, the “50 nM Ag Bound” value was 112 RU, the Kd was 0.113 nM, the koff came out at 4.02e-05 s⁻¹ and the kon is 355000 M⁻¹ s⁻¹. This molecule also came in with a t1/2 of 4.78 h.
The like results for B3 were, in that order, 46 RU, 0.855 nM, 9.94e-05 s⁻¹, 116000 M⁻¹ s⁻¹ and 1.93 h.
The like results for B4 were, in that order, 103 RU, 0.144 nM, 5.22e-05 s⁻¹, 363000 M⁻¹ s⁻¹ and 3.68 h.
The like results for B5 were, in that order, 46 RU, 5.21 nM, 0.000962 s⁻¹, 185000 M⁻¹ s⁻¹ and 0.2 h.

Another experiment deals with T3, Rat IL2Rγ extracellular domain …. The experiment is described as follows: SPR Biacore 4000, anti-hFc-captured mAb, 25 C. Here is the method:
as §1, §2
Turning to B1, the “100 nM Ag Bound” value amounted to 3 RU and the binding result is given as “no binding (tested: 100 nM)”.
In the same order, the values of B2 are 4 RU and “no binding (tested: 100 nM)”.
Take B3: the “100 nM Ag Bound” value is 0 RU and the binding result was “no binding (tested: 100 nM)”.
For the molecule B4, the “100 nM Ag Bound” value is 1 RU and the binding result is “no binding (tested: 100 nM)”.
In the same order, the values of B5 are 2 RU and “no binding (tested: 100 nM)”.

The target in another experiment is T4, Mouse IL2Rγ extracellular domain …. Nature of the experiment: SPR Biacore 4000, anti-hFc-captured mAb, 25 C. Here is the method: as §1, §2
As for B1, the “100 nM Ag Bound” value turned out to be 2 RU.
Consider B2, for which the “100 nM Ag Bound” value turned out to be 2 RU and the binding result is listed as “no binding (tested: 100 nM)”.
Regarding B3, the “100 nM Ag Bound” value amounted to 2 RU and the binding result was “no binding (tested: 100 nM)”.
For B4, the “100 nM Ag Bound” value was 0 RU.
As to B5, the “100 nM Ag Bound” value was 0 RU and the binding result is recorded as “no binding (tested: 100 nM)”.
